Data reported in article PMC3676522 (Synapse (New York, N.Y.), 2011).

Tests used:
DA transporter (DAT) = DA transporter (DAT) (Rattus norvegicus, UniProt P23977); test: [3H]DA uptake into rat striatal synaptosomes; type: biochemical
human DAT = human DAT (Homo sapiens, UniProt Q01959); test: Dissociation of [3H]WIN 35,428 binding from HEK/hDAT cells; conditions: for Dissociation rate K−1 of [3H]WIN 35,428 binding (single component model): experiment B
Chain of human DAT (Q01959 whole entry): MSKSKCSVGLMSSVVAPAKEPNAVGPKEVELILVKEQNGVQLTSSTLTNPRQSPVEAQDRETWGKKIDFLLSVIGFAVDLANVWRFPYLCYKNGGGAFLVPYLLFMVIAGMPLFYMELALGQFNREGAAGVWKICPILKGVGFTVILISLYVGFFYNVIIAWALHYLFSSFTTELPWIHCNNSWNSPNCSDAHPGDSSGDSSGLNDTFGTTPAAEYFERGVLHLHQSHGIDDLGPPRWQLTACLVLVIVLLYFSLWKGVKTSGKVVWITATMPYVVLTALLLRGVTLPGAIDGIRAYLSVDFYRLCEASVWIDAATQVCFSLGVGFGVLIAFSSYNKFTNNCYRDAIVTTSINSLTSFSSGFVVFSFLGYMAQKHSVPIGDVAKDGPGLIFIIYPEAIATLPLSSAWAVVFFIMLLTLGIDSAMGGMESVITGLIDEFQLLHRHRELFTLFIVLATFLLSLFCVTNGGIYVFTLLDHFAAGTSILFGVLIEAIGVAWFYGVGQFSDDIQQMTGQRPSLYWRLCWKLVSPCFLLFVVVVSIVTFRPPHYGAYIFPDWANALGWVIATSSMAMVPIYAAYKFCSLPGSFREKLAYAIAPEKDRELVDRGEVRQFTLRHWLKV

Chain of DA transporter (DAT) (P23977 whole entry): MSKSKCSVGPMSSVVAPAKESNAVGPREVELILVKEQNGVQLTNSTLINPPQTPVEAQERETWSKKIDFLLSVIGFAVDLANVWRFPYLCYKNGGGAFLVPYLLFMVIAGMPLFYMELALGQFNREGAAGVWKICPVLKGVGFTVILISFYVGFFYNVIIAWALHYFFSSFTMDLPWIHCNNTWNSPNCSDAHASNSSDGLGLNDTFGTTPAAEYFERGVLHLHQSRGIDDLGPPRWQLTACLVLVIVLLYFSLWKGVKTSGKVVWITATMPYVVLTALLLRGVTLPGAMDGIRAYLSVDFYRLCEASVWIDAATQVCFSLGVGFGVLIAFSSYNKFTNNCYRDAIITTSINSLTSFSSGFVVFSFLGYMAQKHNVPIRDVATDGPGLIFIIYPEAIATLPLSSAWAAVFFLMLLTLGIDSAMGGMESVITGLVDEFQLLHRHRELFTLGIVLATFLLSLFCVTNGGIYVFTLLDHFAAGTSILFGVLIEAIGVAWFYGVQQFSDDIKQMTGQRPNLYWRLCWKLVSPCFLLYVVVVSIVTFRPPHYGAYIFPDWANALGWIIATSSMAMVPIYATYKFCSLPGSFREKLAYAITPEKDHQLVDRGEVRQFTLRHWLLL

`COC(=O)[C@H]1[C@@H](OC(=O)c2ccccc2)C[C@@H]2CC[C@H]1N2C` [Cocaine] was tested, and the “Specific Uptake (percentage of control)” value (DA transporter (DAT); control (cocaine alone)) was 100%.

`CN[C@@H]1C[C@@H](c2ccc(Cl)c(Cl)c2)c2ccccc21.Cl` [Indatraline, indatraline hydrochloride] was tested, and the “Specific Uptake (percentage of control)” value (DA transporter (DAT); indatraline 10 nM, control = cocaine alone) was 33%.

B1: Tat: Recombinant HIV-1 Tat1-86 protein, LA1/Bru strain of HIV-1 clade B, Genbank accession no. K02013 (protein)
chain: MEPVDPRLEPWKHPGSQPKTACTTCYCKKCCFHCQVCFTTKALGISYGRKKRRQRRRPPQGSQTHQVSLSKQPTSQPRGDPTGPKE
B1 was tested, and the “Specific Uptake (percentage of control)” value (DA transporter (DAT); Tat 5 μM, control = cocaine alone) was 45%, the “Dissociation rate of [3H]WIN 35,428 relative to that observed with cocaine alone” value (human DAT; Tat added after cocaine) was 25% and the “Dissociation rate K−1 of [3H]WIN 35,428 binding (single component model)” value (human DAT; condition-2: cocaine 10 μM at time 0, Tat 5 μM added 5 min later) was 0.08 ± 0.005 min⁻¹. For the same molecule, the “Dissociation rate K−1 of [3H]WIN 35,428 binding (single component model)” value (human DAT; condition-3: Tat 5 μM alone) was 0.03 ± 0.009 min⁻¹.
